Data as given in patent US12269859B2, “Synthetic immune receptors and methods of use thereof” (Angeles Therapeutics, Inc., priority 2016, dated 2025).

system: target antigen-expressing cell line; assay: Jurkat NFAT-GFP assay, coculture with target cell lines expressing the respective target antigen (summary Table 10A); assay type: cell-based, human; design: key: The signs +/−, +, 2+ etc. after the name of the cell lines indicate the relative degree of positivity on the Jurkat-NFAT-GFP assay as measured by the % GFP positive cells; +: relative degree of positivity on the Jurkat-NFAT-GFP assay as measured by the % GFP positive cells; 2+: relative degree of positivity on the Jurkat-NFAT-GFP assay as measured by the % GFP positive cells; settings: coculture with HEL cells
Procedure, shortened: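 Positivity is scored when SIR-expressing reporter Jurkat cells show more GFP-positive cells than parental controls after coculture with the antigen-bearing line. Effector-to-target ratio is about 1:2, coculture lasts roughly 4–18 hours, and GFP is quantified by FACS.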

Row | Molecule | NFAT-GFP ASSAY Positive Cell lines
1 | 091316-A01 (protein, Synthetic Immune Receptor (SIR)) MALPVTALLLPLALLLHAARPLEGKPIPNPLLGLDSTGSGEDLKNVFPPEVAVFEPSKAEIAHTQKATLVCLATGFYPDHVELSWWVNGKEVHSGVCTDPQPLKEQPALNDSRYCLSSRLRVSATFWQNPRNHFRCQVQFYGLSENDEWTQDRAKPVTQIVSAEAWGRADCGITSASYHQGVLSATILYEILLGKATLYAVLVSALVLMAMVKRKDSRGRAKRSGSGATNFSLLKQAGDVEENPGPTSMALPVTALLLPLALLLHAARPDIVMTQAAPSIPVTPGESVSISCRSDKSLLHSNGNTYLFWFLQRPGQSPQLLIYRMSNLASGVPDRFSGSGSGTAFTLRISGVEAEDVGVYYCMQHLEYPYTFGGGTKLEIKGGGGSGGGGSGGGGSQVQLQQSGPELVKPGASVKMSCKASGYAFSSSWLNWVRQRPGKGLEWIGRIYPGDGENHYNGKFKGKATLTADKSSSTGYMQLSSLTSEDSAVYFCASYYEGGYWGQGTLITVSATREQKLISEEDGSGIQNPDPAVYQLRDSKSSDKSVCLFTDFDSQTNVSQSKDSDVYITDKCVLDMRSMDFKSNSAVAWSNKSDFACANAFNNSIIPEDTFFPSSDVPCDVKLVEKSFETDTNLNFQNLSVIGFRILLLKVAGFNLLMTLRLWSSRAKRSGSGVKQTLNFDLLKLAGDVESNPGPSRGHMTEYKPTVRLATRDDVPRAVRTLAAAFADYPATRHTVDPDRHIERVTELQELFLTRVGLDIGKVWVADDGAAVAVWTTPESVEAGAVFAEIGPRMAELSGSRLAAQQQMEGLLAPHRPKEPAWFLATVGVSPDHQGKGLGSAVVLPGVEAAERAGVPAFLETSAPRNLPFYERLGFTVTADVEVPEGPRTWCMTRKPGA | HEL (+/−)
2 | 092216-B03 (protein, Synthetic Immune Receptor (SIR)) MALPVTALLLPLALLLHAARPLEGKPIPNPLLGLDSTGSGEDLKNVFPPEVAVFEPSKAEIAHTQKATLVCLATGFYPDHVELSWWVNGKEVHSGVCTDPQPLKEQPALNDSRYCLSSRLRVSATFWQNPRNHFRCQVQFYGLSENDEWTQDRAKPVTQIVSAEAWGRADCGITSASYHQGVLSATILYEILLGKATLYAVLVSALVLMAMVKRKDSRGRAKRSGSGATNFSLLKQAGDVEENPGPTSMALPVTALLLPLALLLHAARPDQIVLTQSPAIMSASPGEKVTISCSASSSVSYMYWYQQKPGSSPKPWIYRTSNLASGVPARFSGSGSGTSYSLTISNMEAEDAAAYYCQQYHSYPTTFGGGTKLEVKGGGGSGGGGSGGGGSEVQLVESGGGLVQPKGSLKLSCAASGFSFNTYAMNWVRQAPGKGLEWIAHIRSKSNNFATYYADSVKDRFSISRDASENILFLQMNNLKTEDTAMYYCVRQGGDFPMDYWGQGTSVTVSSTREQKLISEEDGSGIQNPDPAVYQLRDSKSSDKSVCLFTDFDSQTNVSQSKDSDVYITDKCVLDMRSMDFKSNSAVAWSNKSDFACANAFNNSIIPEDTFFPSSDVPCDVKLVEKSFETDTNLNFQNLSVIGFRILLLKVAGFNLLMTLRLWSSRAKRSGSGVKQTLNFDLLKLAGDVESNPGPSRGHMTEYKPTVRLATRDDVPRAVRTLAAAFADYPATRHTVDPDRHIERVTELQELFLTRVGLDIGKVWVADDGAAVAVWTTPESVEAGAVFAEIGPRMAELSGSRLAAQQQMEGLLAPHRPKEPAWFLATVGVSPDHQGKGLGSAVVLPGVEAAERAGVPAFLETSAPRNLPFYERLGFTVTADVEVPEGPRTWCMTRKPGA | HEL (+)
3 | 092517-H02 (protein) MALPVTALLLPLALLLHAARPLEGKPIPNPLLGLDSTGSGEDLKNVFPPEVAVFEPSKAEIAHTQKATLVCLATGFYPDHVELSWWVNGKEVHSGVCTDPQPLKEQPALNDSRYCLSSRLRVSATFWQNPRNHFRCQVQFYGLSENDEWTQDRAKPVTQIVSAEAWGRADCGITSASYHQGVLSATILYEILLGKATLYAVLVSALVLMAMVKRKDSRGRAKRSGSGATNFSLLKQAGDVEENPGPTSMALPVTALLLPLALLLHAARPDVVMTQSPSSLSASVGDRVTITCKASEDIYIRLAWYQQKPGKAPKLLIYAATSLETGVPSRFSGSGSGTDFTLTISSLQPEDFATYYCQQYWTTPWTFGGGTKVEIKGGGGSGGGGSGGGGSQVQLQESGPGLVKPSQTLSLTCTVSGYSITIDYTWNWIRQPPGKGLEWIGYITYSGSTDYNPSLKSRVLISVDTSKNQVSLKLSSVTAADTAVYYCARLGRRYALDYWGQGTTVTVSSTREQKLISEEDGSGIQNPDPAVYQLRDSKSSDKSVCLFTDFDSQTNVSQSKDSDVYITDKCVLDMRSMDFKSNSAVAWSNKSDFACANAFNNSIIPEDTFFPSSDVPCDVKLVEKSFETDTNLNFQNLSVIGFRILLLKVAGFNLLMTLRLWSSRAKRSGSGVKQTLNFDLLKLAGDVESNPGPSRGHMTEYKPTVRLATRDDVPRAVRTLAAAFADYPATRHTVDPDRHIERVTELQELFLTRVGLDIGKVWVADDGAAVAVWTTPESVEAGAVFAEIGPRMAELSGSRLAAQQQMEGLLAPHRPKEPAWFLATVGVSPDHQGKGLGSAVVLPGVEAAERAGVPAFLETSAPRNLPFYERLGFTVTADVEVPEGPRTWCMTRKPGA | HEL(+)
4 | 101817-B02 (protein) MALPVTALLLPLALLLHAARPEIVLTQSPATLSLSPGERATLSCSASSSVSYMYWYQQKPGQAPRLLIYRTSNLASGIPARFSGSGSGTDFTLTISSLEPEDFAVYYCQQYHSYPTTFGQGTKVEIKRTVLEIQNPDPAVYQLRDSKSSDKSVCLFTDFDSQTNVSQSKDSDVYITDKCVLDMRSMDFKSNSAVAWSNKSDFACANAFNNSIIPEDTFFPSSDVPCDVKLVEKSFETDTNLNFQNLSVIGFRILLLKVAGFNLLMTLRLWSSRAKRSGSGVKQTLNFDLLKLAGDVESNPGPTSMDWIWRILFLVGAATGAHSFEEVQLVESGGGLVQPGGSLRLSCAASGFSFNTYAMNWVRQAPGKGLEWVSHIRSKSNNFATYYADSVKDRFTISRDNAKNSLYLQMNSLRAEDTAVYYCARQGGDFPMDYWGQGTLVTVSSTREDLKNVFPPEVAVFEPSKAEIAHTQKATLVCLATGFYPDHVELSWWVNGKEVHSGVCTDPQPLKEQPALNDSRYCLSSRLRVSATFWQNPRNHFRCQVQFYGLSENDEWTQDRAKPVTQIVSAEAWGRADCGITSASYHQGVLSATILYEILLGKATLYAVLVSALVLMAMVKRKDSRGRAKRSGSGATNFSLLKQAGDVEENPGPSRGHMTEYKPTVRLATRDDVPRAVRTLAAAFADYPATRHTVDPDRHIERVTELQELFLTRVGLDIGKVWVADDGAAVAVWTTPESVEAGAVFAEIGPRMAELSGSRLAAQQQMEGLLAPHRPKEPAWFLATVGVSPDHQGKGLGSAVVLPGVEAAERAGVPAFLETSAPRNLPFYERLGFTVTADVEVPEGPRTWCMTRKPGA | HEL (+)
